The text below walks through data of patent US12365732 (23ANDME, dated 2025).

Numbering of substitutions follows the chain as printed. Names and notes keep the numbering of the source.

In assay [1] the target is T1, hu-CD96 isoform 2 on CHO cells (human, UniProt P40200 22-585).
T1 construct: also called CHO-CD96 (isoform 2); CD96-CHOs
T1 sequence: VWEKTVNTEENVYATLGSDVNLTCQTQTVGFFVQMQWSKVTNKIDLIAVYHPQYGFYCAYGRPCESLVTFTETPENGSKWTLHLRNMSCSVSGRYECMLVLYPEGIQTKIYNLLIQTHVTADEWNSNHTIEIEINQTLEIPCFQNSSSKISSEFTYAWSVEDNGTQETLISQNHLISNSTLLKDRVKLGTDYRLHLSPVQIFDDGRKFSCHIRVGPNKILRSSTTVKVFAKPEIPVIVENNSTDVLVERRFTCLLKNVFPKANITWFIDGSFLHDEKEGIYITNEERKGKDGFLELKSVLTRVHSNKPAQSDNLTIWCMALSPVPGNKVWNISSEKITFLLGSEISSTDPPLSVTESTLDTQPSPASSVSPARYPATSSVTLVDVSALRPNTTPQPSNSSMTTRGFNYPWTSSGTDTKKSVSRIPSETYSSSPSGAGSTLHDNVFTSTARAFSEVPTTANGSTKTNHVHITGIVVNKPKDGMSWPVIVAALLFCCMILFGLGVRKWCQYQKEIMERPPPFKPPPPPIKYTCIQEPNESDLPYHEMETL
In words: FACS, Ab 50 nM. The protocol: Isoform 1 of hu-CD96 (Origene, catalog #RC213845) was transiently expressed in HEK293T cells following standard lipofectamine or Fugene transfection protocol. […] Cells were washed, and binding was detected by incubation with anti-mouse IgG-FITC (Biolegend, catalog #406001) for 20 minutes at 4° C. Cell binding was analyzed by flow cytometry with a CytoFLEX (Beckman Coulter). Binding curves were calculated as a percentage of cells positive for bound antibody.
Isoform 2 of hu-CD96 (DNA construct: Origene, catalog #RC221005) was expressed on a single-cell-clone-derived CHO stable cell line. Binding of the anti-CD96 antibodies to the CHO cells were determined as described above with isoform 1 of hu-CD96.
(In general: A flow cytometer gives signals particle by particle.)

Assay [2] has as its target T2, cy-CD96 (soluble, extracellular domain) (cynomolgus monkey, UniProt P40200 22-516 (human entry), biotinylated in Octet and blocking ELISA).
T2 construct: the assays name only cy-CD96; also called biotinylated cy-CD96
T2 chain: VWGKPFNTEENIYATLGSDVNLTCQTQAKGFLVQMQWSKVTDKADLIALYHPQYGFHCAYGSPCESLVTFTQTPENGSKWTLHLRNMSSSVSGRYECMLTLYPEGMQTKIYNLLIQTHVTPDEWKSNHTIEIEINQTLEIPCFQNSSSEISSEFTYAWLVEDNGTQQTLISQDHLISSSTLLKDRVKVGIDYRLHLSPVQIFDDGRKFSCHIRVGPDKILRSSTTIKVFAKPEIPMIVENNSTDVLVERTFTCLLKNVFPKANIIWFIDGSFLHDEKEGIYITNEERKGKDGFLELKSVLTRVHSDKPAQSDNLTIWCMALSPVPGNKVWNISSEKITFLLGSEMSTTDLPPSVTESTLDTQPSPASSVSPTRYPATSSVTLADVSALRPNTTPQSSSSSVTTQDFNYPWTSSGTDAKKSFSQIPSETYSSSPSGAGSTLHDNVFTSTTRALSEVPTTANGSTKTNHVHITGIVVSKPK
In words: ELISA, blocks biotin-CD96 binding to coated hu-CD155-mFc. As to the method:
The selected 5 affinity matured Fab variants of mAb1.v7 Fab were assayed for blocking of human CD155 (hu-CD155) receptor by ELISA as follows. Briefly, 96-well MAXISORP® flat bottom plates (Thermofisher, Cat #439454) were coated overnight at 4° C. with 2 µg/mL goat anti-mouse Fc (Thermofisher, Cat #31168) in PBS. After removing the coating solution, unspecific binding was blocked with PBS containing 1% bovine serum albumin (BSA) and incubation at room temperature for one hour. Plates were then washed five times in PBS with 0.05% TWEEN®-20 (wash buffer) and added […] hu-CD155-mFc in PBS for 1 hour in room temperature. During blocking period, 50 µL/well of 4 nM biotinylated hu-CD96 or 40 nM biotinylated cy-CD96 with serial dilution of the Fab variants 50 µL/well (starting at 2 µM, 1:3 dilution) for two hours at room temperature with PBS containing 0.5% BSA and 0.05% Tween 20 (ELISA buffer) in NUNC F plate (Thermofisher, Cat #269620). Then transferred the antigen-antibody mix solution 80 µL/well into hu-CD155-mFc coated wells at room temperature for 15 min. Plates were then washed with wash buffer to which was added 50 µL/well Streptavidin poly-HRP (Thermofisher, Cat #21140) diluted 1:5000 in ELISA buffer at room temperature for one hour with agitation. […] Enzymatic color development was stopped with 50 µL/well of TMB stop solution (VWR, Cat #95059-200). Plates were analyzed with a SpectraMax i3X plate reader (Molecular Devices) at 450 nm. […] The blocking $IC50$ values for the mAbv1.7 and the 5 selected affinity matured Fab variants (mAb1.v7.2, mAb1.v7.9, mAb1.v7.16, mAb1.v7.48, mAb1.v7.70) are summarized in Table 10 (above).
(An ELISA detects its analyte on a solid surface through an enzyme-linked reagent.)

Assay [3] concerns the target T1, hu-CD96 isoform 2 on CHO cells. In words: FACS, blocks 10 nM CD155-Fc-FLAG binding to CD96-CHO. The protocol:
CHO cells stably expressing isoform 2 of hu-CD96 (Origene, catalog #RC221005) were incubated with anti-CD96 antibodies for 20 minutes at 4° C. The cells were washed, and then incubated with 10 nM human CD155-Fc-FLAG for 30 minutes at 4° C. Cells were washed, and then human CD155-Fc-FLAG binding was detected by incubation with anti-FLAG-APC (Columbia Biosciences, catalog #D3-1718-1MG) for 20 minutes at 4° C. Cell binding was analyzed by flow cytometry with a CytoFLEX (Beckman Coulter). CD155 binding is represented as median fluorescence intensity (MedFI).
As shown in Table 20 (below), the anti-CD96 antibodies, mAb1.v7.NGS8, mAb1.v7.NGS9, mAb1.v7.NGS10, mAb1.v7.NGS11, and h10G1 inhibited soluble hu-CD155 binding to CD96-expressing CHO cells dose-dependently and potently. The antibody NK92.39 (Fuchs et al., 2004; Biolegend catalog #338405) inhibited receptor binding similarly.

B1: 7E5, purified hybridoma antibody (antibody, V domains shown)
VH: QVQLKESGPGLVAPSQSLSIICTVSGFSLTNYGIHWIRQPPGKGLEWLGIIWAGGSTNYNSALMSRLTISKDNSKSQVFLKMNSLQTNDTAIYYCARVSMMGFAYWGQGTLVTVSA
VL: QAVVTQESALTTSPGETVTLTCRSSTGAVTTSNYANWVQEKPDHLFTGLIGGTNNRAPGVPARFSGSLIGDKAALTITGAQTEDEAIYFCSLWYGSHWVFGGGTKLTVL
notes: murine hybridoma IgG
As for B1, the “% positive” value in assay [1] is 58.9%.

B2: 9H4, purified hybridoma antibody (antibody, V domains shown)
VH: EVQLLETGGGLVKSGGSLKLSCAASGFTFSDYYMYWVRQTPEKRLEWVAAISDDGTYTYYPDSVKGRFTISRDNANNYLYLQMSSLKSEDTAIYYCAKAGSYDYFDVWGAGTTVTVSS
VL: DIVLTQSPASLAVSLGQRAIISCKASQSVTFADTGLMHWYQQKPGQQPKLLIYRASNLEVGVPTRFSGSGSGTDFTLNIHPVEEEDVATYYCQQSREYPWTFGGGTKLEIK
notes: murine hybridoma IgG
Turning to B2, in assay [1], the “% positive” value was found to be 46.2%.

B3: 10G1 (clone 10G1.3G8), purified hybridoma antibody (antibody, V domains shown)
VH: QIQLVQSGPELKKPGETVKISCKASGYPFTTYGMSWVKQAPGKGLKWMGWINTDSGVPTYADDFKGRFAFSLETSANTAYLQINSLKNEDAATYFCARNIYYGWGNFDYWGQGTILTVSS
VL: DILMTQSPTTLSVTPGETVSLSCRASQDIYRNLHWYQQKSQGTPRLLIKHASDSISGIPSRFTGSGSGTDFTLSINSVKPEDEGIYYCLQGYSMPYTFGGGTKLEIK
notes: murine hybridoma IgG
B3: the “% positive” value in assay [1] came to 39.8%.

B4: mAb1.v7.2 Fab (Fab, V domains shown)
VH: EVQLVQSGAEVKKPGASVKVSCKASGFTFTNNWRHWVRQAPGQGLEWIGMIHFNSGITNINEKFKNRVTMTTDTSTSTAYMELRSLRSEDTAVYYCRSDGVYEGYFDYWGQGTLVTVSS
VL: DIQLTQSPSSLSASVGDRVTITCKASQNVGTAIVWYQQKPGKAPKVLIYSASTRYTGVPSRFSGSGSGTDFTLTISSLQPEDFATYYCQQYSSSPLTFGQGTKVEIK
notes: also called M34R/P52aF/T97V
Broadly, the IC50 is the point on the concentration scale where inhibition reaches its midpoint. Lower therefore signals higher potency. For the molecule B4, in assay [2], the IC50 amounted to 2.17 nM.

B5: mAb1.v7.9 Fab (Fab, V domains shown)
VH: B4 VH with F53M
VL: B4 VL
notes: also called M34R/P52aM/T97V
Consider B5, for which, in assay [2], the IC50 came to 3.18 nM.

B6: mAb1.v7.NGS11 IgG (antibody, V domains shown)
VH: B4 VH with W33F, R34M, M50F, F53A
VL: DIQLTQSPSSLSASVGDRVTITCKASQNVGTAIVWYQQKPGKAPKVLIYSASTRYTGVPSRFSGSGSGTDFTLTISSLQPEDFATYYCQQYSSSPLTFGQGTKVEIKG
notes: human IgG1 N297G
With B6, in assay [3], the IC50 turned out to be 0.46 nM.

B7: mAb1.v7.NGS10 IgG (antibody, V domains shown)
VH: B4 VH with W33F, R34M, M50F, F53A, V101I
VL: B6 VL
notes: human IgG1 N297G
In assay [3], B7 had an IC50 of 0.57 nM.

B8: mAb1.v7 IgG (humanized 12F8) (antibody, V domains shown)
VH: B4 VH with R34M, F53P, V101T
VL: B6 VL
notes: human IgG1 N297G
B8: the “% positive” value in assay [1] was 44.1%.

B9: mAb1.v7.70 Fab (Fab, V domains shown)
VH: B4 VH with N32R, R34M, F53A
VL: B4 VL
notes: also called N32R/P52aA/T97V
Molecule B9 gave an IC50 in assay [2] of 2 nM.

B10: mAb1.v7.48 Fab (Fab, V domains shown)
VH: B4 VH with N32R, R34M, F53H
VL: B4 VL
notes: also called N32R/P52aH/T97V
For B10, the IC50 in assay [2] is 4.8 nM.

B11: mAb1.v7.16 Fab (Fab, V domains shown)
VH: B4 VH with F53P
VL: B4 VL
notes: also called M34R/T97V
Regarding B11, the IC50 in assay [2] amounted to 1.42 nM.

B12: mAb1.v7.NGS9 IgG (antibody, V domains shown)
VH: B4 VH with W33F, R34M, F53A
VL: B6 VL
notes: human IgG1 N297G
In assay [3], B12 registered an IC50 of 0.91 nM.

B13: h10G1 IgG (humanized 10G1) (antibody, V domains shown)
VH: EIQLVQSGSELKKPGASVKVSCKASGYPFTTYGMSWVRQAPGQGLEWMGWINTDSGVPTYADDFKGRFVFSLDTSVSTAYLQISSLKAEDTAVYFCARNIYYGWGNFDYWGQGTLVTVSS
VL: EIVMTQSPDFQSVTPKEKVTITCRASQDIYRNLHWYQQKPDQTPKLLIKHASDSISGIPSRFSGSGSGTDFTLTINSLEAEDAAAYYCLQGYSMPYTFGGGTKVEIKG
notes: human IgG1 N297G
Take B13: the IC50 in assay [3] stood at 0.06 nM.
